Assay results: patent publication US20130011386A1

molecular target: FcγRIIIa (human) (UniProt P08637); assay: cell-based or functional assay
Sequence (P08637 17-208 limits assumed): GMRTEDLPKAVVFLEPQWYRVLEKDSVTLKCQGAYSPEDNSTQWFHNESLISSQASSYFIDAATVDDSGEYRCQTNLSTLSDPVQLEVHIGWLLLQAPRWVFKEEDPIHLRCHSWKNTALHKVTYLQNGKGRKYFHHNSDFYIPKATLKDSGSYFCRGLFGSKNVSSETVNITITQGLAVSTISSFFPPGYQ

Going from “2h S239D/K326A/E333A (construct 16), anti-CD142 antibody” to “2h S267E/I332E (construct 17), anti-CD142 antibody”, the ADCC EC50 rises from 0.14 ng/mL to 5.6 ng/mL (40-fold).

For “IgG1 wt (construct 1), anti-CD142 antibody with wild type human IgG1 constant region”, the ADCC EC50 was 0.42 ng/mL.

First: 2h S267E/I332E (construct 17), anti-CD142 antibody
Second: IgG1 wt (construct 1), anti-CD142 antibody with wild type human IgG1 constant region
The ADCC fold (EC50 IgG1 wt/EC50 construct) of the first is lower: 0.08 fold for the first, 1 fold for the second.

molecular target: FcγRIIIa (human) (UniProt P08637); assay: cell-based or functional assay; remark: another data set of the same source

First: 2h F243L/R292P/Y300L (construct 7), anti-CD142 antibody
Second: 2h G237A/S239D/I332E (construct 12, X = A), anti-CD142 antibody
The ADCC EC50 of the first is 1.5-fold lower: 0.31 ng/mL for the first, 0.47 ng/mL for the second.

Going from “2h K326A/E333A (construct 11), anti-CD142 antibody” to “2h S239D/H268F/S324T/I332E (construct 9), anti-CD142 antibody”, the ADCC EC50 falls from 21 ng/mL to 0.7 ng/mL (30-fold).

Compared with “2h S239D/I332E (construct 5), anti-CD142 antibody”, “IgG1 wt (construct 1), anti-CD142 antibody with wild type human IgG1 constant region” is 9.1-fold higher in ADCC EC50: 0.53 ng/mL for the first, 4.8 ng/mL for the second.

First: 2h F243L/R292P/Y300L (construct 7), anti-CD142 antibody
Second: 2h G237A/S239D/I332E (construct 12, X = A), anti-CD142 antibody
The ADCC fold (EC50 IgG1 wt/EC50 construct) of the first is higher: 15 fold for the first, 10 fold for the second.

Going from “2h K326A/E333A (construct 11), anti-CD142 antibody” to “2h S239D/I332E (construct 5), anti-CD142 antibody”, the ADCC fold (EC50 IgG1 wt/EC50 construct) rises from 0.2 fold to 9 fold.

“2h S239D/I332E (construct 5), anti-CD142 antibody” gave an ADCC (shift in apparent EC50 against IgG1 wt), PBMC effectors, MDA-MB-231 targets of 8 fold.
